In article PMC6430795, “Complex formation of APP with GABAB receptors links axonal trafficking to amyloidogenic processing” (Nature Communications, 2019):
Values belong to the molecule of their own block, whether it stands above or below them.

Key:
[1] = target: Myc-GB1a (UniProt Q9Z0U4)
[2] = target: T1, APP on tsA201 cells (UniProt P05067-4 18-695); assay: immunostaining of cells or tissue; cell surface binding: transfected tsA201 cells incubated 30 min at room temperature with 0.2 to 2000 nM purified Myc-SD1/2 in OptiMEM, fixed, bound SD1/2 stained with anti-c-Myc and put into ratio with the expressed protein; apparent KD from a Hill equation with a coefficient of 1; conditions: one partner purified
T1 construct: expression was read with goat anti-APP; source: tsA201 cells, transfected, on cells

[3] = target: T2, AJAP-1 on tsA201 cells (UniProt A2ALI5 44-412); assay: as above; conditions: one partner purified
T2 construct: adherens junction-associated protein 1; cDNA from Source BioScience in pcDNA3; source: tsA201 cells, transfected, on cells
T2 sequence (looked up): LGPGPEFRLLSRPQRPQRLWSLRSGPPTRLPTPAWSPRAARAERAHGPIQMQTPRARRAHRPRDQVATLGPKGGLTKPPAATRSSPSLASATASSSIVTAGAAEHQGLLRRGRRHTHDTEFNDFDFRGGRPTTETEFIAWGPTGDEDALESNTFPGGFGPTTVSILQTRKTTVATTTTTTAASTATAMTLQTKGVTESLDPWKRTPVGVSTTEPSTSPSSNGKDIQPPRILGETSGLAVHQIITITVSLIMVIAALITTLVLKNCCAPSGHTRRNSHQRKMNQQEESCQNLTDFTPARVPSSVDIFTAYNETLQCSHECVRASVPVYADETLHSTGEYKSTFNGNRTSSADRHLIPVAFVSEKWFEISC

[4] = target: T3, HA-PIANP on tsA201 cells (UniProt Q6P1B3 28-278); assay: as above; conditions: one partner purified
T3 construct: PILRα-associated neural protein; cDNA from OriGene in pCMV6 with an HA-tag insertion after amino acid 27; source: tsA201 cells, transfected, on cells; not shown: HA, internal (after residue 27), kept
T3 sequence (looked up): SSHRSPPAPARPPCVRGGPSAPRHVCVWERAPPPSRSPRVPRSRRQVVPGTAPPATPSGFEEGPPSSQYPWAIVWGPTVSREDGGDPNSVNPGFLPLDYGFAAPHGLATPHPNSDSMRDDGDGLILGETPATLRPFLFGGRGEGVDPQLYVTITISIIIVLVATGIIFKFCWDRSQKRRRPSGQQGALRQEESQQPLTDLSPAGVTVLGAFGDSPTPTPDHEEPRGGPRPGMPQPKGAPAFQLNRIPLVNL

reduction of BACE1-mediated Aβ40 secretion into the medium of HEK293 cells in the presence of GB1a/2 receptors, ELISA 32 h post-transfection [1]: 77% | reduction of the APP-βCTF/APP-FL ratio (BACE1 cleavage of APP) in HEK293 cells in the presence of GB1a/2 receptors, immunoblot densitometry [1]: 60% | reduction of the sAPPβ/APP-FL ratio (BACE1 cleavage of APP) in HEK293 cells in the presence of GB1a/2 receptors, immunoblot densitometry [1]: 57%
Molecule: APP (APP695, pCAX-APP695) (from UniProt P05067-4 18-695) (natural protein)

Kd [2]: 188 nM | Kd [3]: 6.4 nM | Kd [4]: 29.1 nM
B1: recombinant SD1/2 protein (sushi domains 1 and 2 of GB1a) (domain or fragment, UniProt Q9Z0U4 20-158, looked up)
chain: QTPNATSEGCQIIHPPWEGGIRYRGLTRDQVKAINFLPVDYEIEYVCRGEREVVGPKVRKCLANGSWTDMDTPSRCVRICSKSYLTLENGKVFLTGGDLPALDGARVEFRCDPDFHLVGSSRSVCSQGQWSTPKPHCQV
notes: the two N-terminal sushi domains (SD1 and SD2) of the GABAB receptor subunit GB1a; the NMR samples are called unlabeled recombinant SD1/2; also called Myc-SD1/2; Myc-SDI/II
